± gives the uncertainty stated by the source.
Experiments:
[1] = amyloid nucleation score (Sup35N fusion, yeast selection) (log enrichment); library NNK1; higher = more nucleation; inactive = no reads after selection
In short: (§1)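 The nucleation score is the DiMSum log enrichment of output over input reads, centred on the mode score of non-aggregating sequences. Only sequences with 100 or more input reads were scored, using Illumina sequencing of input and output plasmid inserts. Psi-negative yeast expressing Sup35N fused to peptides of 20 random codons were induced 24 hours with 100 μM copper sulfate and grown 7 days at 30°C on medium lacking adenine and uracil.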

[2] = amyloid nucleation score (Sup35N fusion, yeast selection) (log enrichment); library NNK2; higher = more nucleation; inactive = no reads after selection
In short: as §1

| Substance | amyloid nucleation score [1] | amyloid nucleation score [2] |
| --- | --- | --- |
| AKLDWHIRTAEWGLPKLLLT | inactive | -0.467 ± 0.54 |
| DKDDEIY | 1.42 ± 0.76 |  |
| ITMNVRSSYGLSVIMIELGL | 1.02 ± 0.76 |  |
| LRHRKSRNRVSCHCLGHGCW | 1.54 ± 0.84 |  |
| VLLWVGLTYATGLGRRSSLF | -1.3 ± 0.97 |  |
| LFCDPAFGKHLCFRNAFCWF | 0.255 ± 0.23 |  |
| FSFDLLSVESGITNV | -0.054 ± 0.82 |  |
| NEFTFSYKYGRHSGRSLKRR | 2.32 ± 0.28 |  |
| RLASRCLLALGMEWLIPMER | 2.6 ± 0.11 |  |
| NWCTNTRSIFTIRGTDAGTL | -0.721 ± 1.1 |  |
| YNVIWSMVGEYLHSSCYGPV | inactive |  |
| RWSIELCVRM | -0.367 ± 0.51 |  |
| RWGGDALNAWHASDSSVGLR | -1.01 ± 0.73 |  |
| HQINRWRLLPRGGTFKDGHN | 0.703 ± 0.54 |  |
| KWLTFVMDMSDLCYSSFNVN | inactive |  |
| NFTIDKRNAMLCVGRLYRSF | 1.05 ± 0.5 |  |
| LWSVVYIVIYHLMSNADWST | -0.252 ± 0.41 |  |
| VGIWIGVDMGIGWGRDSVYV | 0.125 ± 0.53 |  |
| VLCVFCGNLHMIVLDCAFDA | 8.589 ± 0.051 |  |
| VGSQKCLYCGVAYSEGVWIY | inactive |  |
| SRLRCMEH | 2.51 ± 0.15 |  |
| YCTLFGSWPLIVVVGG | -0.772 ± 0.77 |  |
| IMEGR | 5.73 ± 0.1 |  |
| QRMCVYLGTLPLSLLGRMWG | 0.175 ± 1.1 |  |
| CFCPSKGDTDRLWAHFSARF | -0.093 ± 0.45 |  |
| SCMRSKWKNTWLKYRYVNCI | -0.493 ± 0.62 |  |
| EQNCVGVCSELNVFYGACVI | 2.12 ± 0.48 |  |

| Substance | amyloid nucleation score [1] | amyloid nucleation score [2] |
| --- | --- | --- |
| SERTMMSDKLSKRSLPCSLR | -0.717 ± 0.63 |  |
| VVVFSNYNFVGKCIHVNSEL | 7.351 ± 0.07 |  |
| FHALGCK | -0.38 ± 0.41 |  |
| SCVAVSNNMILPRVSGLFEG | 2.55 ± 0.15 |  |
| YLKGVG | 0.104 ± 0.74 |  |
| NVTCSHPGFFYSIVKTYMFR | -0.877 ± 1.9 |  |
| CDGVMKSGVKKMSTSRDWFM | inactive |  |
| CLATLSMSYLLFVSGLRRIK | -0.554 ± 0.59 |  |
| SIRVSDYQRVFNNIGMSNCN | -0.454 ± 0.53 |  |
| LYGYSI | 0.778 ± 0.41 |  |
| NLSGDDFGVNEKTSRWCQWG | 0.397 ± 1.2 |  |
| CRHLFNWASWSTFTRIS | 0.375 ± 0.23 |  |
| MWYVHHCQGSVTLLARGRLC | 0.886 ± 1 |  |
| DIVPSTPELFI | -0.505 ± 0.59 |  |
| RSSPHSGWQPVDLKY | -1.37 ± 2.4 |  |
| CCERGWS | 0.156 ± 0.72 |  |
| LGCLYIA | -0.711 ± 0.44 |  |
| VCMLVHLVTFAPNS | 2.61 ± 0.26 |  |
| GFSLDRFSDHVLMGNSD | -0.585 ± 0.23 |  |
| VNVIWAFYNN | 5.7 ± 0.072 |  |
| PVYMGIAALYGPGCLTLLTV | 2.07 ± 0.3 |  |
| VLLCNFRSRVWRYRCFKAFS | 0.93 ± 0.19 |  |
| AACGWHRLICNKFSQFTRGP | -0.021 ± 0.75 |  |
| FPLCSCHCYSSTWMCYRASL | 0.048 ± 0.97 |  |
| ASMPAFAT | 0.413 ± 0.72 |  |
| NHGWVLNSNFYIPRKYSLVR | -1.25 ± 0.48 |  |
| CHYGDPSGWGQLTPSTWTGE | 0.573 ± 0.42 |  |

Source: the supplement of paper PMC12042874
